From US20200009222A1, “[…] ACTIVE COMPLEXES” (HAMLET PHARMA AB, priority 2016, published 2020)

Key:
bladder cancer = settings: prior clinical study; cited from earlier work
SC-35 = SC-35 phosphorylation, Western blot analysis and flow cytometry; format: cell-based
Protocol: Cells were grown on 6-well plates (3×10^5/well, TPP) overnight. Cells treated with HAMLET were lysed with mammalian NP-40 lysis buffer supplemented with protease and phosphatase inhibitors (both from Roche Diagnostics). […] The anti-GAPDH (1:1,000, sc-25778, Santa Cruz) and anti-Histone H3 (ab1791, Abcam) were used as loading controls. Primary antibodies followed by HRP-conjugated secondary anti-rabbit or anti-mouse antibodies (1:4000, 5% NFDM, Cell Signaling) and visualized using ECL Plus detection reagent (GE Health Care). Band intensities were quantified using the ImageJ software 1.46r (NIH).

[1] = system: adherent lung carcinoma cells (A549); assay: Live cell imaging of Alexa-Fluor labeled HAMLET uptake; format: cell-based, human; settings: 35 μM, 1 hour
Protocol: For uptake experiments lung carcinoma cells were treated with Alexa-488 or 568 labeled HAMLET, washed and visualized under confocal microscope live. Localization of HAMLET in lysosomes was detected by pre-labelling the cells with lysotracker (LysoTracker Green DND-26, Thermo Fisher). For peptide or peptide-oleate complexes uptake, lung carcinoma cells were treated with individual biotinylated peptide alone or mixed with sodium oleate. Cells were fixed (2% PFA, 10 min), permeabilized (0.25% Triton X-100) and blocked with FCS (10% in PBS). The biotinylated peptides were detected with Alexa-488 or 568 labeled streptavidin conjugate (1:200, 5% FCS/PBS, 1 hour). The accumulation of peptide or peptide oleate complexes in lysosomes was investigated by treatment of lung carcinoma cells with Alexa-568 labeled peptide (20%) or peptide-oleate complexes for 1 hour. Cells were counter stained with lysosomal marker, Lysotracker. Slides were examined using LSM 510 META or LSM 800 laser scanning confocal microscope (Carl Zeiss).
During live cell imaging of Alexa-Fluor labeled HAMLET (35 μM, 1 hour) and adherent lung carcinoma cells (A549), two distinct cellular staining patterns (FIG. 1a) were detected. […] Nuclear speckles reside in the inter-chromatin space of eukaryotic nuclei and serve as important nodes in the splicing of pre-mRNA and transport of spliced RNA. […]

[2] = system: Protein kinase C (PKC) isoforms; assay: Kinex KAM-850 phospho-antibody array; format: cell-based, human; settings: 1 hour, 21 uM
Protocol: The in vivo kinase activity assay was performed using Kinex™ KAM-850 Antibody Microarray Services (Kinexus, Canada). Untreated and HAMLET-treated samples were performed in duplicates. Raw quantification data and basic analyses for individual samples were provided. Reference data, consolidated data of over 200 samples was also provided as reference, confirming the validity of the assay performed. Targets with percent fold change over control>10 were significant. The targets were identified in the human profiling human activity-based phosphorylation network (Molecular Systems Biology 9:655).

histone H3 = assay: ProtoArray Human Protein Microarray interaction profiling; format: binding; settings: screen of 8000 human proteins
Protocol: (§1) ProtoArray® Human Protein Microarray version 4.0 (Invitrogen) was performed as previously described^20, which consists of approximately 8,000 human proteins. AlexaFluor®568-labeled HAMLET was added to protein arrays at two concentrations (5 and 50 ng/μl) in duplicate, and the fluorescence was measured by using GenePix 6.0. Negative control array was incubated with buffer alone and scanned at a wavelength of 532 nm. […] The interactions were quantified as fold change (FCs) over the average negative control value.

PKC isoforms = assay: as above; format: binding; settings: screen of 8000 human proteins
Protocol: as §1

MB49 bladder tumor = assay: Real-time in vivo fluorescence imaging and tissue uptake of labeled complex; settings: tumor-bearing mice; intravesical; 24 hours
Protocol: HAMLET or peptides were labeled using VivoTag 680XL Protein Labeling Kit (Perkin Elmer). Mice were anaesthetized using Isofluorane and 100 ul solution of labeled HAMLET or peptide was instilled in bladders of tumor bearing or healthy control mice.
Hair was removed from the ventral sides of anesthetized mice. Mice were imaged at various time points using an IVIS Spectrum imaging system (Perkin Elmer). Signals from HAMLET or peptides were acquired at fluorescent settings with 680 nm excitation. For tissue specific uptake, Alexa-568 labeled peptide was instilled in bladders of tumor bearing or healthy control mice. Mice were sacrificed after 24 hours of treatment and bladder sections were imaged using Zeiss AX10 fluorescence microscope.
The retention of alpha-peptide oleate complexes by the tumor was visualized, by in vivo imaging in mice with palpable tumors. VivoTag 680XL labeled alpha1 peptide-oleate complexes were instilled intra-vesically on day 8 after the inoculation of MB49 cells and the fluorescence signal was monitored longitudinally, using the IVIS spectrum in vivo imaging system.
To verify that the alpha-peptides are retained by the bladder tumor, Alexa Fluor-568 labeled alpha1 peptide-oleate complexes were instilled into the bladders of tumor bearing mice (day 8, palpable tumors).

B1: HAMLET (protein)
chain: KQFTKCELSQLLKDIDGYGGIALPELICTMFHTSGYDTQAIVENNESTEYGLFQISNKLWCKSSQVPQSRNICDISCDKFLDDDITDDIMCAKKILDIKGIDYWLAHKALCTEKLEQWLCEKL
Toxic effects (bladder cancer): not detected | Tumor response to intravesical instillations (bladder cancer): massive tumor cell exfoliation | SC-35 phosphorylation (SC-35): inhibited | Population I cells (membrane blebbing, diffuse cytoplasmic staining, nuclear speckle accumulation) [1]: 51% | Population II cells (exclusively cytoplasmic, lysosomal uptake) [1]: 47% | PKC isoforms with inhibited phosphorylation [2]: 5/6 | Affinity for histone H3 in proteomic screen (histone H3): confirmed | Binding to PKC isoforms in proteomic screen (PKC isoforms): identified as HAMLET targets | Fluorescence signal of VivoTag 680XL labeled complex, retention (MB49 bladder tumor): retention
